{"source": "patent US20110104167A1", "about": "“Compositions and Methods for Diagnosing and Treating Insulin Resistance” (YEDA RESEARCH AND DEVELOPMENT CO. LTD., priority 2004, published 2011)", "key": {"[1]": {"test_system": "Fao cells", "assay": "Effect of inducers of insulin resistance on insulin-stimulated Tyr phosphorylation of IRS-1 in Fao cells", "assay_type": "cell-based, rat", "protocol": "FIGS. 5a-c show the effects of TPA and anisomycin on insulin-induced Tyr phosphorylation of IRS-1^7A in Fao cells. Fao cells were infected with Ad-Myc-IRS-1^WT or Ad-Myc-IRS-1^7A at 7×10^7 PFU/ml. Following 48 hours the cells were deprived of serum for 16 h, and were then treated for 60 min with 200 nM TPA (FIG. 5a); 50 ng/ml of anisomycin (FIG. 5b) or 1 μg/ml of anisomycin (FIG. 5c). This was followed by treatment with 100 nM insulin for 2 min (FIG. 5a) or for the indicated times (FIGS. 5b-c). Cell extracts were prepared, and samples (1 mg) were subjected to immunoprecipitation (IP) with anti-Myc antibodies (FIG. 5a). Immunocomplexes were resolved on 7.5 SDS-PAGE and were immunoblotted with the indicated antibodies. Alternatively, total cell extracts (FIGS. 5b-c) were resolved on 7.5% SDS-PAGE and immunoblotted with the indicated antibodies. Results of a representative of four experiments are presented. The results of two independent experiments done in duplicates were quantified (FIG. 5a, right panel).\nFIGS. 6a-b show the dose dependent effect of Palmitic acid on Insulin-induced Tyr phosphorylation of IRS-1 mutants in Fao cells. Fao cells were infected with Ad-Myc-IRS-1^WT or Ad-Myc-IRS-1^7A at 7×10^7 PFU/ml. Following 24 hours the cells were deprived of serum for 12 h, and were then further incubated for 12 h with or without the indicated concentrations of palmitic acid in serum free medium prior to being stimulated with 100 nM insulin for the indicated times. Cell extracts (100 μg) were resolved on 7.5% SDS-PAGE and immunoblotted with anti-PY and anti-Myc antibodies. The results of two independent experiments done in duplicates were quantified.\n(§1) FIGS. 11a-c show the effects of TPA and anisomycin on insulin-stimulated Tyr phosphorylation of IRS-1^WT, IRS-1^7A and IRS-1^408A. Fao cells were infected with Adeno-myc-IRS-1 wild type (WT); the 7A mutant; or the S408A mutant at a titer of 4-6×10^7 PFU/ml. Following 48 hours the cells were deprived of serum for 16 h, and were then treated for 60 min with 200 nM TPA (FIG. 11a), or 50 ng/ml anisomycin (FIG. 11b), followed by treatment with 100 nM insulin for the indicated times. Cell extracts were prepared, samples (1 mg) were subjected to immunoprecipitation (IP) with anti-Myc antibodies. Immunocomplexes were resolved on 7.5% SDS-PAGE and immunoblotted with anti-PY or anti IRS-1 antibodies.\nInfection of Fao cells with adenovirus—Fao cells were grown in RPMI medium containing 10% FCS. At 70% confluence cells were infected with adenoviruses harboring the gene of interest at a titer of 7 10^7 PFU/ml. After incubation for 2 h hours at 37° C., the virus-containing medium was diluted 1:5 in fresh RPMI medium. After 24 h the medium was replaced with a fresh RPMI medium containing 10% FCS. […]"}, "[2]": {"test_system": "Fao cells", "assay": "Insulin-induced Tyr phosphorylation of Myc-IRS-1 in adenovirus-infected Fao cells", "assay_type": "cell-based, rat", "details": "60 min insulin", "protocol": "FIGS. 3a-b show Insulin-induced Tyr phosphorylation of IRS-1^7A in Fao cells. FIG. 3a—Fao cells were infected with Ad-Myc-IRS-1^WT or Ad-Myc-IRS-1^7A at 7×10^7 PFU/ml. Following 48 hours, the cells were starved in serum-free RPMI medium for 16 h and were then treated with insulin for the indicated times. Cell extracts were prepared and samples (1 mg) were subjected to immunoprecipitation (IP) with anti-Myc antibodies. Immunocomplexes were resolved on 7.5% SDS-PAGE and immunoblotted with anti-pY antibodies. In parallel, samples (100 μg) of total cell extracts were resolved on 7.5% SDS-PAGE and immunoblotted with anti-Myc antibodies. FIG. 3b—The bands corresponding to anti-pY/total Myc-IRS-1 were quantified by densitometry and are presented as a bar graph. Results are of a representative experiment carried out in duplicate.\nas §1, with “Cell extracts were prepared, samples (1 mg) were subjected to immunoprecipitation (IP) with anti-Myc antibodies. Immunocomplexes were resolved on 7.5% SDS-PAGE and immunoblotted with anti-PY or anti IRS-1 antibodies.” left out"}}}
{"molecule": "IRS-1^408A: mouse IRS-1 with Ser408 mutated to Ala (protein) MEQKLISEEDLNMASPPPDTDGFSDVRKVGYLRKPKSMHKRFFVLRAASEAGGPARLEYYENEKKWRHKSSAPKRSIPLESCFNINKRADSKNKHLVALYTRDEHFAIAADSEAEQDSWYQALLQLHNRAKAHHDGAGGGCGGSCSGSSGVGEAGEDLSYDTGPGPAFKEVWQVILKPKGLGQTKNLIGIYRLCLTSKTISFVKLNSEAAAVVLQLMNIRRCGHSENFFFIEVGRSAVTGPGEFWMQVDDSVVAQNMHETILEAMRAMSDEFRPRSKSQSSSSCSNPISVPLRRHHLNNPPPSQVGLTRRSRTESITATSPASMVGGKPGSFRVRASSDGEGTMSRPASVDGSPVSPSTNRTHAHRHRGSSRLHPPLNHSRSIPMPSSRCSPSATSPVSLSSSSTSGHGSTSDCLFPRRSAASVSGSPSDGGFISSDEYGSSPCDFRSSFRSVTPDSLGHTPPARGEEELSNYICMGGKGASTLAAPNGHYILSRGGNGHRYIPGANLGTSPALPGDEAAGAADLDNRFRKRTHSAGTSPTISHQKTPSQSSVASIEEYTEMMPAAYPPGGGSGGRLPGYRHSAFVPTHSYPEEGLEMHHLERRGGHHRPDTSNLHTDDGYMPMSPGVAPVPSNRKGNGDYMPMSPKSVSAPQQIINPIRRHPQRVDPNGYMMMSPSGSCSPDIGGGSSSSSSISAAPSGSSYGKPWTNGVGGHHTHALPHAKPPVESGGGKLLPCTGDYMNMSPVGDSNTSSPSECYYGPEDPQHKPVLSYYSLPRSFKHTQRPGEPEEGARHQHLRLSSSSGRLRYTATAEDSSSSTSSDSLGGGYCGARPESSLTHPHHHVLQPHLPRKVDTAAQTNSRLARPTRLSLGDPKASTLPRVREQQQQQQSSLHPPEPKSPGEYVNIEFGSGQPGYLAGPATSRSSPSVRCPPQLHPAPREETGSEEYMNMDLGPGRRATWQESGGVELGRIGPAPPGSATVCRPTRSVPNSRGDYMTMQIGCPRQSYVDTSPVAPVSYADMRTGIAAEKASLPRPTGAAPPPSSTASSSASVTPQGATAEQATHSSLLGGPQGPGGMSAFTRVNLSPNHNQSAKVIRADTQGCRRRHSSETFSAPTRAGNTVPFGAGAAVGGSGGGGGGGSEDVKRHSSASFENVWLRPGDLGGVSKESAPVCGAAGGLEKSLNYIDLDLAKEHSQDCPSQQQSLPPPPPHQPLGSNEGNSPRRSSEDLSNYASISFQKQPEDRQ", "values": [{"measurement": "protection against the inhibitory effects of anisomycin", "setting": "[1]; 50 ng/ml anisomycin 60 min", "result": "could not protect"}, {"measurement": "protection from the inhibitory effects of TPA on insulin-stimulated Tyr phosphorylation", "setting": "[1]; 200 nM TPA 60 min", "result": "partially prevented"}, {"measurement": "Tyr phosphorylation level after prolonged insulin treatment (Example 9)", "setting": "[2]", "result": "reduced to a similar extent"}]}
